Experimental data: patent US20020090682A1 (AMRAD OPERATIONS, published 2002)

How the values were obtained:
[1] = target: T1, IL-13Rα(NR4) expressed in CTLL cells (high affinity IL-13 receptor; cells also carry the IL-4 receptor) (murine, UniProt P16382 26-810); experiment: Scatchard analysis of 125I-IL-13 binding to CTLL cells expressing the IL-13Rα(NR4)
Experimental: Data have been normalised to 1×10⁴ COS cells and 1×10⁶ CTLL cells and binding was carried out on ice for 2 to 4 hours.
A likely candidate based on previous studies is the IL-4Rα.

[2] = target: T2, murine NR4 (IL-13 receptor α-chain, IL-13Rα) expressed in COS cells (murine, UniProt O09030 27-424); experiment: Scatchard analysis of 125I-IL-13 binding to COS cells expressing NR4
T2 construct: also called IL-13Rα(NR4)
T2 sequence: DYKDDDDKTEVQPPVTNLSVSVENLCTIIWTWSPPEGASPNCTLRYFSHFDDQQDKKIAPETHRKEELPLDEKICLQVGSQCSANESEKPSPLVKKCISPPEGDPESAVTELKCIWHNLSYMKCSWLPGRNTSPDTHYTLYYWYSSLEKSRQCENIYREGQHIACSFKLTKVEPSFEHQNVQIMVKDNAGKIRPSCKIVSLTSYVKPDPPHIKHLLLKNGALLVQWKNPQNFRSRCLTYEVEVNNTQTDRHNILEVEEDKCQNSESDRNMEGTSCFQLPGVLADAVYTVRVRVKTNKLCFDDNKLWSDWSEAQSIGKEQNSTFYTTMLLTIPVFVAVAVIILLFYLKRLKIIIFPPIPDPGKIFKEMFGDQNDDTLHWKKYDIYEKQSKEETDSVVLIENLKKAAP

[3] = target: T1, IL-13Rα(NR4) expressed in CTLL cells …; experiment: unlabelled IL-13 competing with 125I-IL-13 for binding to CTLL cells expressing the IL-13Rα(NR4)

T1 sequence (P16382 26-810): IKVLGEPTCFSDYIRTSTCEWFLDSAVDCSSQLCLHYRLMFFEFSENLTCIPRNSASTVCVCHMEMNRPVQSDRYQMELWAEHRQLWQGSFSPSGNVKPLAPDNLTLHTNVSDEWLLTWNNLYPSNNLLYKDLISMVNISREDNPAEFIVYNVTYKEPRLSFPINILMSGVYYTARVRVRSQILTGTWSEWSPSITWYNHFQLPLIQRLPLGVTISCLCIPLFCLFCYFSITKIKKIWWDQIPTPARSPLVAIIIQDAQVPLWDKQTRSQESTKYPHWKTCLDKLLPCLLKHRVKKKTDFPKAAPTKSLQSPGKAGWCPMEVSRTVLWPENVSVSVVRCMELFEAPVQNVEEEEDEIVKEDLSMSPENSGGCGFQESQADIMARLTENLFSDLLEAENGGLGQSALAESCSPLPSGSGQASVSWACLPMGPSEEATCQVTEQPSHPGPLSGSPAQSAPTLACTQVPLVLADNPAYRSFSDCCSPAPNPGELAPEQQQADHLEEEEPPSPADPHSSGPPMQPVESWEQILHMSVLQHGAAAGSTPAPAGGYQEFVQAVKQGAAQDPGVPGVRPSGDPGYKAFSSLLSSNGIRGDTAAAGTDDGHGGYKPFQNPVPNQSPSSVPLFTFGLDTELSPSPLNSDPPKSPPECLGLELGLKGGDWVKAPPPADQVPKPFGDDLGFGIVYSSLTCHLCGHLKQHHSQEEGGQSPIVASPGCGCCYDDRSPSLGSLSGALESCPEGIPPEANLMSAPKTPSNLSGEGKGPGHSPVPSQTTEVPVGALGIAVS

B1: IL-13 (obtained commercially, R & D Systems) (ligand)
chain: APGPVPRSVSLPLTLKELIEELSNITQDQTPLCNGSMVWSVDLAAGGFCVALDSLTNISNCNAIYRTQRILHGLCNRKAPTTVSSLPDTKIEVAHFITKLLSYTKQLFRHGPF
modifications: Radioiodinated (125I, iodine monochloride method) in the labelled form.
notes: the receptor and the cells are murine; also called unlabelled IL-13
**Q.** B1 was tested. Which Kd [1] did it give?
**A.** ~0.075 nM

**Q.** What about the Kd [2] of the same binder?
**A.** 2 to 10 nM

**Q.** What about the IC50 [3] of the same binder?
**A.** ~0.3 nM
